T1: AR-DBD + LBD (yeast 2-hybrid bait) (UniProt P10275 506-920)
T1 sequence (looked up): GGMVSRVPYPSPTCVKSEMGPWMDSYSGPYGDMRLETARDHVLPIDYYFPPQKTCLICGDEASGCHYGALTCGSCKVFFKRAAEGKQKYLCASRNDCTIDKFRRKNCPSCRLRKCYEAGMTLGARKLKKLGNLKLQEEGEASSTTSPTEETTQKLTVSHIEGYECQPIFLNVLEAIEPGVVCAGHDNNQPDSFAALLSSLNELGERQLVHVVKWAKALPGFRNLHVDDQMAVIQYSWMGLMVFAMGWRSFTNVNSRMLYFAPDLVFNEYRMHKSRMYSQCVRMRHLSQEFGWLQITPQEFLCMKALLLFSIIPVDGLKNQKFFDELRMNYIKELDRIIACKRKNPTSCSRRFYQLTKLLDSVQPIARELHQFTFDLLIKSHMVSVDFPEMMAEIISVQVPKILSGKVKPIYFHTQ

T2: AR-AT (yeast 2-hybrid bait) (UniProt P10275 1-505)
T2 sequence (looked up): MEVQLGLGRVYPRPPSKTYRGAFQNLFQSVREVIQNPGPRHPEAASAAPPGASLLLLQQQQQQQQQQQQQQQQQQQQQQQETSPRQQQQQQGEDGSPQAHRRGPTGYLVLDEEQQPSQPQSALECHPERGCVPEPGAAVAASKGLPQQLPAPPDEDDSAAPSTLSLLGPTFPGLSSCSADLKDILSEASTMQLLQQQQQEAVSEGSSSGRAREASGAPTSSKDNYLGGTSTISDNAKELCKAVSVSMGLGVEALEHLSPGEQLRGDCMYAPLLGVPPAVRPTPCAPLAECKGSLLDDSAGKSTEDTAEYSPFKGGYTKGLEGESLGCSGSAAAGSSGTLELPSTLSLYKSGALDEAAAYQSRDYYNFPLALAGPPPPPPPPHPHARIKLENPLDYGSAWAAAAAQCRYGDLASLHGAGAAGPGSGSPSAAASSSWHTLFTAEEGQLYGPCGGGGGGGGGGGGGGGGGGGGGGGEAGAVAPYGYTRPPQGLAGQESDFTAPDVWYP

T3: AR-DBD (yeast 2-hybrid bait) (UniProt P10275 506-636)
T3 sequence (looked up): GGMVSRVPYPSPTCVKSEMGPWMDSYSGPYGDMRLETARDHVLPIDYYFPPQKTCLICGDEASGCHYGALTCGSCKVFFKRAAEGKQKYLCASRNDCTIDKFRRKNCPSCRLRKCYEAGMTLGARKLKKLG

B1: pACT2-PAK (yeast 2-hybrid prey) (other, not shown: large carriers)
chain: LKRRLFRSMFLSTAATAPPSSSKPGPPPQSKPNSSFRPPQKDNPPSLVAKAQSLPSDQPVGTFSPLTTSDTSSPQKSLRTAPATGQLPGRSSPAGSPRTWHAQISTSNLYLPQDPTVAKGALAGEDTGVVTHEQFKAALRMVVDQGDPRLLLDSYVKIGEGSTGIVCLAREKHSGRQVAVKMMDLRKQQRRELLFNEVVIMRDYQHFNVVEMYKNYLVGEELWVLMEFLQGGALTDIVSQVRLNEEQIATVCEAVLQALAYLHAQGVIHRDIKSDSILLTLDGRVKLSDFGFCAQISKDVPKRKSLVGTPYWMAPEVISRSLYATEVDIWSLGIMVIEMVDGEPPYFSDSPVQAMKRLRDSPPPKLKNSHKVSPVLRDFLERMLVRDPQERATAQELLDHPFLLQTGLPECLVPLIQLYRKQTSTC
B2: pGAD424-GRIP1 (yeast 2-hybrid prey, GRIP1 amino acids 730-1121) (other, UniProt Q61026 730-1121, looked up, not shown: large carriers)
chain: VKQEPASPKKKENALLRYLLDKDDTKDIGLPEITPKLERLDSKTDPASNTKLIAMKTVKEEVSFEPSDQPGSELDNLEEILDDLQNSQLPQLFPDTRPGAPTGSVDKQAIINDLMQLTADSSPVPPAGAQKAALRMSQSTFNNPRPGQLGRLLPNQNLPLDITLQSPTGAGPFPPIRNSSPYSVIPQPGMMGNQGMLGSQGNLGNNSTGMIGSSTSRPSMPSGEWAPQSPAVRVTCAATTGAMNRPVQGGMIRNPTASIPMRANSQPGQRQMLQSQVMNIGPSELEMNMGGPQYNQQQAPPNQTAPWPESILPIDQASFASQNRQPFGSSPDDLLCPHPAAESPSDEGALLDQLYLALRNFDGLEEIDRALGIPELVSQSQAVDAEQFSSQE

Assays:
Experiment in all cases: cell-based or functional assay
[1] = target: T1, AR-DBD + LBD (yeast 2-hybrid bait)
[2] = target: cortactin (yeast 2-hybrid bait)
[3] = target: T2, AR-AT (yeast 2-hybrid bait)
[4] = target: T3, AR-DBD (yeast 2-hybrid bait)
[5] = target: pAS2 vector (empty bait control)

Row | Binder | Fold induction of β-galactosidase by DHT (yeast 2-hybrid) [1] | Fold induction of β-galactosidase by DHT (yeast 2-hybrid) [2] | Fold induction of β-galactosidase by DHT (yeast 2-hybrid) [3] | Fold induction of β-galactosidase by DHT (yeast 2-hybrid) [4] | Fold induction of β-galactosidase by DHT (yeast 2-hybrid) [5]
1 | B1 | 27 fold | 1 fold | 1.1 fold | 0.9 fold | 1.2 fold
2 | B2 | 5.7 fold |  |  |  | 

Source: US20030166623A1 (BETH ISRAEL DEACONESS MEDICAL CENTER, published 2003)
